Assay results: patent US20110008356A1

Assays:
[1] = target: Human IL-17RA:Fc (human), Q96F46; assay: SPR (BIAcore 3000), receptor:Fc captured by anti-human Fc, cytokine as analyte, koff/kon, 1:1 Langmuir fit; details: remark: other sources report otherwise
Human IL-17RC:Fc (human) = Human IL-17RC:Fc (human) (UniProt Q8NAC3); assay: as above

Binder	Kd [1]	Kd (Human IL-17RC:Fc (human))
Human IL-17F, Q96PD4 31-163 (ligand, UniProt Q96PD4 31-163, looked up) RKIPKVGHTFFQKPESCPPVPGGSMKLDIGIINENQRVSMSRNIESRSTSPWNYTVTWDPNRYPSEVVQAQCRNLGCINAQGKEDISMNSVPIQQETLVVRRKHQGCSVSFQLEKVLVTVGCTCVTPVIHHVQ	100 nM	
Human IL-17F (ligand, UniProt Q96PD4 31-163, looked up) RKIPKVGHTFFQKPESCPPVPGGSMKLDIGIINENQRVSMSRNIESRSTSPWNYTVTWDPNRYPSEVVQAQCRNLGCINAQGKEDISMNSVPIQQETLVVRRKHQGCSVSFQLEKVLVTVGCTCVTPVIHHVQ		0.1 nM
